Experimental data published in patent US20220119543A1 (INATHERYS, published 2022).

Columns and labels:
[1] = target: T1, Recombinant human TfR (R&D Systems, Catalog number 2474-TR) (human, UniProt P02786 89-760); test: SPR (Biacore), His-tagged human TfR captured on anti-Penta-His CM5 chip, antibody injected
T1 construct: Bought recombinant protein; also called Histidin-tagged human TfR; TfR-His; not shown: histidine tag
Method: Histidin-tagged human TfR (as obtained from R&D Systems, Catalog number 2474-TR) was bound after passage on covalently immobilized Penta-His mAb CM5 sensor chip. Ten different concentrations of antibody (1 to 500 nM) were injected across the anti-His/TfR-His surface for 4 minutes and the dissociation complexes was followed for 5 minutes. Both association and dissociation profiles are analyzed with a nonlinear square algorithm implemented in the BIAevalution software using single-exponential functions of time.

[2] = target: T1, Recombinant human TfR (R&D Systems, …); test: ELISA, recombinant human TfR coated on plate
Method: For the determination of the specificity of the antibody an ELISA test may be applied using the following protocol. Recombinant human TfR (as obtained from R&D Systems, Catalog number 2474-TR) are directly coated on a 96 well plate overnight and washed twice before incubation with several dilutions (10) of the antibody (murine and humanized mAb) (dilution may start at the concentration of 50 μg/ml through 0,001 ug/ml) and incubate 1 hour at room temperature. After two washes a secondary antibody Goat-anti Human IgG is incubated Incubate 1 hour at room temperature in the dark, washed twice and incubated with the TMB solution for 10 minutes before reading the absorbance at 450 nm.

T1 sequence (P02786 89-760 limits assumed): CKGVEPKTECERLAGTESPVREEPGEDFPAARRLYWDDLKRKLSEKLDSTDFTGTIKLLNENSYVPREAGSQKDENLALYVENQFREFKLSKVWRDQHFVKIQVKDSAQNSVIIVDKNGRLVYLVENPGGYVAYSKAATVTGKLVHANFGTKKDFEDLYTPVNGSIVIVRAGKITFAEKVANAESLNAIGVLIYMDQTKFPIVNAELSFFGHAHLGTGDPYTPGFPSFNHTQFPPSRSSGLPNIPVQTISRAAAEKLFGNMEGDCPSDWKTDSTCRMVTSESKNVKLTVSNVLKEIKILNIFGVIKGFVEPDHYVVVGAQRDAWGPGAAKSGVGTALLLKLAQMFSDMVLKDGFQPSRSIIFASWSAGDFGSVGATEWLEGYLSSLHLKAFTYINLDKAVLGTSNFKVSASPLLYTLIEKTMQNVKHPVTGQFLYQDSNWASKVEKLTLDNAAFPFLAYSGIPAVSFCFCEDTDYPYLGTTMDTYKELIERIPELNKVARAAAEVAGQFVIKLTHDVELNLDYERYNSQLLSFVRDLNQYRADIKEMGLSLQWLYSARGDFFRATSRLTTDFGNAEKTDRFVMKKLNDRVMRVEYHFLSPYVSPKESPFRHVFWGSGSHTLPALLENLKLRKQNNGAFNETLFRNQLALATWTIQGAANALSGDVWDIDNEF

Kd [1]: 0.315 nM | EC50 [2]: 0.024 µg/mL
B1: mAb1 (antibody, human IgG4 S228P, kappa, V domains shown)
VH: QVQLVQSGPELKKPGASVKVSCKASGYTFTNQGMNWVKQAPGKGLKWMGWINTYTGEPINADDFKGRFVISLDTSASTAYLQISSLKAEDTAVYFCVREGWDSMDYWGQGTSVTVSS
VL: QIVLTQSPATLSVSPGERATLSCSASSSVNYMHWFQQKPGQSPRLLIYSTSNRATGIPARFSGSGSGTSYTLTISSLEPEDFAVYYCQQRSSYPLTFGQGTKLEIKR
notes: Humanized A24, human IgG4 isotype; also called VH4/VL4 with IgG4 Fc region
